The values that follow come from paper doi:10.1101/2024.12.23.630085, “Accurate sequence-to-affinity models for SH2 domains from multi-round peptide binding assays coupled with free-energy regression” (bioRxiv, 2025).

Non-standard residues stand in square brackets, D forms with d. No end group written: not given here. *: point of attachment. FITC = O=C1OC2(c3ccc(O)cc3Oc3cc(O)ccc32)c2ccc(NC(=S)*)cc21; pY = N[C@@H](Cc1ccc(OP(=O)(O)O)cc1)C(=O)O; Ahx = NCCCCCC(=O)O

Common to all, as to conditions: both partners purified
Assay [1] deals with T1, Grb2 SH2 domain (UniProt P62993 60-152, biotin (biotinylated SH2 domain of the selection)).
T1 construct: SH2 domain of the adapter protein Grb2; source: purified
T1 sequence (P62993 60-152): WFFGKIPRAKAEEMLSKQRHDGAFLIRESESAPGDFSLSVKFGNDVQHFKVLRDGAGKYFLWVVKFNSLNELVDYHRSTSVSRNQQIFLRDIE
Nature of the assay: fluorescence polarisation; competition mode; unlabelled phosphopeptide against 30 nM FITC-Ahx-FDDPS(pY)VNVQN and 123 nM Grb2 SH2 (Table S3). A general note: Fluorescence polarisation rises when a labelled molecule tumbles more slowly, as on binding a larger partner.

The target of assay [2] is T2, c-Src SH2 domain (UniProt P12931-1 151-248, biotin (biotinylated SH2 domain of the selection)).
T2 construct: SH2 domain of c-Src kinase; source: purified
Nature of the assay: fluorescence polarisation; competition mode; unlabelled phosphopeptide against 30 nM FITC-Ahx-GDG-pY-EEISPLLL-NH2 and 122.745 nM c-Src SH2 (123.745 to 125.745 in three rows; Table S3).

The target of assay [3] is T3, Fyn SH2 domain (142-248) (human, UniProt P06241 142-248, biotin on the AviTag).
T3 construct: human Fyn kinase, SH2 domain, residues 142-248; source: E. coli C43(DE3) with BirA helper plasmid, purified (HisTrap, HiTrap Q, Superdex 75); not shown: His6-SUMO, N-terminal, cleaved; AviTag, C-terminal, kept
T3 sequence (P06241 142-248): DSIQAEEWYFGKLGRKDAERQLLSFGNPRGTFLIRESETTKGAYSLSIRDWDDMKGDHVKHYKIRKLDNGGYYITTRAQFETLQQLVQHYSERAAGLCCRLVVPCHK
Nature of the assay: fluorescence polarisation; competition mode: unlabelled phosphopeptide competes with a FITC-labelled probe phosphopeptide for the purified SH2 domain; probe KD first measured in direct mode; as described in ref. 33.

Assay [4] deals with T4, Lyn SH2 domain (121-228) (human, UniProt P07948 121-228, biotin on the AviTag).
T4 construct: source: E. coli C43(DE3) with BirA helper plasmid, purified (HisTrap, HiTrap Q, Superdex 75); not shown: His6-SUMO, N-terminal, cleaved; AviTag, C-terminal, kept
T4 sequence (P07948 121-228): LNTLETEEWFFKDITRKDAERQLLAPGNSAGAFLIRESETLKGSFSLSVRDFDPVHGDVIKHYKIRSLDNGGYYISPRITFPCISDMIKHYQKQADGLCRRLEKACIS
The description is as above.

The target in assay [5] is T5, Yes SH2 domain (150-257) (human, UniProt P07947 150-257, biotin on the AviTag).
T5 construct: human Yes kinase, SH2 domain, residues 150-257; source: E. coli C43(DE3) with BirA helper plasmid, purified (HisTrap, HiTrap Q, Superdex 75); not shown: His6-SUMO, N-terminal, cleaved; AviTag, C-terminal, kept
T5 sequence (P07947 150-257): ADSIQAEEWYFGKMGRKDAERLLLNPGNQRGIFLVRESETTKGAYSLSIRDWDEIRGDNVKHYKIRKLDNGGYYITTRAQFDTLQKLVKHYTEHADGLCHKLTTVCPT
Described as above.

Assay [6] concerns the target T6, Blk SH2 domain (116-222) (human, UniProt P51451 116-222, biotin on the AviTag).
T6 construct: human Blk kinase, SH2 domain, residues 116-222; source: E. coli C43(DE3) with BirA helper plasmid, purified (HisTrap, HiTrap Q, Superdex 75); not shown: His6-SUMO, N-terminal, cleaved; AviTag, C-terminal, kept
The assay is described as above.

T6 sequence (P51451 116-222): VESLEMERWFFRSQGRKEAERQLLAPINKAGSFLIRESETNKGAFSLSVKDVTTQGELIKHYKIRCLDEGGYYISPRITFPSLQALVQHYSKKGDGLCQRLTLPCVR

B1: Syn-G2-1 (synthetic) (peptide)
peptide: Ac-QKEAHH[pY]VNWRTG-NH2
notes: source: synthetic peptide (SynPeptide, China)
As to B1, the Kd in assay [1] came to 0.0318 µM; in assay [2] it was 9.66 µM.

B2: FITC-Ahx-GDG(pY)EEISPLLL (peptide)
peptide: {FITC-Ahx}-GDG[pY]EEISPLLL
notes: c-Src SH2 consensus peptide; the Y is phosphotyrosine; also called c-Src SH2 consensus; probe; source: synthetic peptide (SynPeptide, China)
For B2, the binding result in assay [3], in assay [4], in assay [5] and in assay [6] was “binds” each time.

The Kd is the free concentration of one partner at which half of the binding sites on the other are occupied at equilibrium, for simple one-to-one binding.
